We go through five molecules from patent US20250145711A1 (Janssen / Centocor, published 2025).

A word on the EC50: it is the concentration that produces a half-maximal response. The low end stands for an effect from little substance, the high end for a need for much substance. What is called Kd is the constant that tells how readily two partners part at equilibrium. For orientation: EC50 (read off the curve) means the concentration at which the effect is half-maximal.

Assay [1] has as its target T1, Human CD79b, endogenous on diffuse large B-cell lymphoma cell lines (human, UniProt P40259 29-229).
T1 construct: On HBL-1, OCI-LY10 and Carnaval cells, which also carry CD20; also called Igβ
T1 sequence: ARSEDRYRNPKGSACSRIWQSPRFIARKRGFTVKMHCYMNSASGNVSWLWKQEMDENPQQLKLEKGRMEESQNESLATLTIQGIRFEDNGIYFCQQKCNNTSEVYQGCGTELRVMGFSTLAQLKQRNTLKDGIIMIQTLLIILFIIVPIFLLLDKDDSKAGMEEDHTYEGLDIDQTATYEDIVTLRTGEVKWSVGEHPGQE
Kind of assay: flow cytometry on HBL-1 cells; bispecific control in the trispecific table. Here is the method:
(§1) All cells were washed with BD stain buffer (BD Biosciences; Cat #554657), centrifuged at 1200 RPM for 3 minutes, with supernatant discarded. […] All cells were washed with BD stain buffer (BD Biosciences; Cat #554657), centrifuged at 1200 RPM for 3 mins, with supernatant discarded. Cells were analyzed using Intellicyt (Sartorius) flow cytometer and mean fluorescent intensity (MFI) was generated using Forcyt software (Sartorius). MFI was graphed and EC50 values generated using GraphPad PRISM v.8. Dose response curves were generated by transforming the x axis values using the formula […]. Data was then graphed using non-linear regression curve fit analysis “log(agonist) vs. response-variable slope (four parameter)”.

The target of assay [2] is T1, Human CD79b, endogenous on diffuse …. The experiment in a line: flow cytometry on Carnaval cells; bispecific control in the trispecific table. On the procedure:
as §1
(In general: Flow cytometry measures light scatter and fluorescence of single cells or particles in a stream.)

Assay [3] has the same target. The experiment in a line: flow cytometry on HBL-1 cells (endogenous CD79b), 1 h 37 C, anti-human IgG AF647. On the procedure: as §1
Assay [4] shares this target. Kind of assay: flow cytometry on Carnaval cells (endogenous CD79b), 1 h 37 C, anti-human IgG AF647. On the procedure:
as §1

Assay [5] concerns the target T2, Human CD79b long isoform, recombinant extracellular domain (CD9W8.001) (human, UniProt P40259 29-159).
T2 construct: extracellular domain; also called hu CD79b long
T2 sequence (looked up): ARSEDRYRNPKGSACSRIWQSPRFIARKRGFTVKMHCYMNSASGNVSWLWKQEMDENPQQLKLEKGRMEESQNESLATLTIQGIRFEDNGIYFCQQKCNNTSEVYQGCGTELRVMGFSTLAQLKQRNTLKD
The experiment in a line: SPR Biacore 8K, antibody captured by anti-human Fc, CD79b in solution, 25 C, 1:1 Langmuir. On the procedure: (§2) General Protocol for SPR Affinity Assessment: Affinity assessment of the bispecific and trispecific constructs against human CD79b were measured using recombinantly expressed extracellular domain of CD79b short and long isoforms (CD9W7.001 and CD9W8.001, respectively) by Surface Plasmon Resonance (SPR) using a Biacore 8 k SPR system (Biacore) at 25° C. in HBSP+ buffer. Cross-reactivity of the same antibody panel was also assessed against cyno and mouse antigens (CD9W1.001 and CD9W105.001, respectively). Briefly, a C1 sensor chip was immobilized with anti-human Fc (target immobilization levels of >400 RU) using vendor recommended amino coupling protocol. The test antibodies were captured through immobilized anti-Fc and was followed by the injection of different CD79b constructs at different concentration series (human CD79b short and long isoforms: 30 nM-0.37 nM at 3-fold dilutions; cyno and mouse CD79b: 3000 nM-37 nM at 3-fold dilutions). The association and dissociation phases were measured for 2 or 3 minutes and 30 minutes, respectively.
(§3) The raw binding sensorgrams were processed using Biacore Insight software (Biacore) by double-referencing and the processed sensorgrams were analyzed for cross-reactivity and fitted to a 1:1 Langmuir model to obtain on-rates, off-rates and affinities.
On the technique in general: Surface plasmon resonance follows binding to a sensor surface in real time, without labels.

The target of assay [6] is T3, Human CD79b short isoform, recombinant extracellular domain (CD9W7.001) (human, UniProt P40259 29-159).
T3 chain: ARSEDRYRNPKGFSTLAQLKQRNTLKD
Described as above. On the procedure: as §2, §3

The target of assay [7] is T4, TRCW5 antigen (CD3δε-Fc-Avi) (biotinylated (site not stated)).
T4 construct: also called recombinant CD3
T4 sequence (chain, as listed by the source mutant limits assumed): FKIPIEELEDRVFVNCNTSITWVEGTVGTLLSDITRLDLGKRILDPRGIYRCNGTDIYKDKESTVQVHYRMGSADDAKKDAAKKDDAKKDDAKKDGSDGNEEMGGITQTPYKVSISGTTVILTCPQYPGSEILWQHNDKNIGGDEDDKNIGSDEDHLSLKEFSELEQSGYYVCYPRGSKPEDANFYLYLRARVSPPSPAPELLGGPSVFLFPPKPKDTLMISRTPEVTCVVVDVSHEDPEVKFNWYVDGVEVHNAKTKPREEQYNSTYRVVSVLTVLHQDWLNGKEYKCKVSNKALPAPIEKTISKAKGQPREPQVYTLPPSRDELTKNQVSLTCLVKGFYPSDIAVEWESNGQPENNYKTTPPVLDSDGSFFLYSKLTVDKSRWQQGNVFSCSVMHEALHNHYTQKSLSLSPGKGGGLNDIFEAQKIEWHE
The experiment in a line: ELISA: biotinylated TRCW5 on streptavidin plates at the antigen concentration of the x axis, E. coli scFv supernatant, anti-HA-HRP, luminescence. Here is the method: (§4) Briefly, DNA was transformed into an E. coli expression vector to generate scFv molecules having a C-terminal HA-tag, and cells were plated on 2×YT/Carb/2% Glucose grown overnight at 37 C. Colonies were picked and transferred 50 ul of overnight growth cultures to new plates containing 500 ul of 2×YT/Carb/0.1% Glucose, grown for 6-7 hr, and combined with 50 ul 2×YT medium containing 1×carbenicillin & 12×IPTG. Cultures were incubated with shaking ˜600 RPM 30° C. overnight. Streptavidin coated plates were bound with 50 μL of biotinylated TRCW5 antigen (CD3δε-Fc-Avi, SEQ ID NO: 39) at the concentrations indicated in the ELISA graph for 45 min at room temperature with shaking (FIG. 1, FIG. 3, FIG. 4) followed by washing 3× with 1×TBST. Plates were blocked with 200 ul 3% Milk in 1×TBST for ˜45 mins at room temperature followed by washing 3× with 1×TBST. E. coli cultures were harvested by centrifugation at […] for 10 mins 4° C. and 50 μL of supernatant was transferred into CD3-coated plates followed by incubation at 4 C for 45 min. Plates were washed 3× with 1×TBST. Bound scFv was detected with Chicken Polyclonal Anti-HA-HRP (ab1190) [1:1000] for ˜45 mins RT and luminescence detected with chemi-luminescent substrate.
(In general: In an ELISA, binding on a coated surface is turned into a signal by an enzyme label.)

The target of assay [8] is PSMA on C4-2B human prostate tumor cells (human, UniProt Q04609 1-750). Kind of assay: flow cytometry, C4-2B cells. On the procedure: Molecule concentrations ranged from 500-0 nM over 12-points at 3-fold dilution. […] Values reported in the Table 69 were generated by fitting the data to a four-parameter function for ligand binding generating values for y-min, y-max, EC50, and Hill. EC90 were calculated using the equation EC90=[…]\hat{ }(1/Hill)*EC50.
Sequence of PSMA on C4-2B human prostate tumor cells (Q04609 whole entry): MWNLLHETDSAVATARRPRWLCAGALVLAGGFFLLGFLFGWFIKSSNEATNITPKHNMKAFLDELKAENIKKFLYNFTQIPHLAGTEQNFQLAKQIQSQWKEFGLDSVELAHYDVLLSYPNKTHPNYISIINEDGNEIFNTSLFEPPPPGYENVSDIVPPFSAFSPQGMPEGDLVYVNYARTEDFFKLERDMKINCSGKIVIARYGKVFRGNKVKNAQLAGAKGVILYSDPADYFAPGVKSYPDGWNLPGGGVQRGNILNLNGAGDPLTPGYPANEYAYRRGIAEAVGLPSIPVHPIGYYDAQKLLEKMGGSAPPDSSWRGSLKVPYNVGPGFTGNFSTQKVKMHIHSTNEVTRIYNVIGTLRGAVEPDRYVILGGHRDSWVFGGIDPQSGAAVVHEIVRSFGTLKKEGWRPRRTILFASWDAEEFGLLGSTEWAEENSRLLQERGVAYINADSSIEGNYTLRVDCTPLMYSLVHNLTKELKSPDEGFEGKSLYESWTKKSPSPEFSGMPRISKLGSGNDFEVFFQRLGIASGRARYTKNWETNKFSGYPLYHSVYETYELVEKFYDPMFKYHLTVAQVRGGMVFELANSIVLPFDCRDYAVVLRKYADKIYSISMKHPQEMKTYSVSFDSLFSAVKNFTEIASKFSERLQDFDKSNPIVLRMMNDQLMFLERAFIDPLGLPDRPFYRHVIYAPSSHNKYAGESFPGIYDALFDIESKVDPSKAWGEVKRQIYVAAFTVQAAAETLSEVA

The target in assay [9] is T4, TRCW5 antigen (CD3δε-Fc-Avi). Kind of assay: ELISA after heat.
The target is the same in assay [10]. The experiment in a line: ELISA, E. coli scFv on biotinylated TRCW5. Here is the method:
as §4

Assay [11] has the same target. The experiment in a line: ELISA: biotinylated TRCW5 on streptavidin plates at the [CD3] of the x axis, E. coli scFv supernatant, anti-HA-HRP, luminescence. On the procedure: as §4

B1: 79C3B646 (bispecific antibody, human IgG1, lambda, L234A L235A)
heavy: QVQLQQSGPGLVKPSQTLSLTCAISGDSVSSNSATWNWIRQSPSRGLEWLGRTYYRSKWYNDYTVSVKSRITINPDTSKNQFSLQLNSVTPEDTAVYYCTRVDIAFDYWGQGTLVTVSSASTKGPSVFPLAPSSKSTSGGTAALGCLVKDYFPEPVTVSWNSGALTSGVHTFPAVLQSSGLYSLSSVVTVPSSSLGTQTYICNVNHKPSNTKVDKKVEPKSCDKTHTCPPCPAPEAAGGPSVFLFPPKPKDTLMISRTPEVTCVVVSVSHEDPEVKFNWYVDGVEVHNAKTKPREEQYNSTYRVVSVLTVLHQDWLNGKEYKCKVSNKALPAPIEKTISKAKGQPREPQVYTLPPSREEMTKNQVSLSCAVKGFYPSDIAVEWESNGQPENNYKTTPPVLDSDGSFFLVSKLTVDKSRWQQGNVFSCSVMHEALHNRFTQKSLSLSPGK
light: QTVVTQPPSVSEAPRQRVTISCSGSSSNIGNHGVNWYQQLPGKAPKLLIYNDDLLPSGVSDRFSGSTSGTSGSLAISGLQSEDEADYYCAAWDDSLNGVVFGGGTKLTVLGQPKAAPSVTLFPPSSEELQANKATLVCLISDFYPGAVTVAWKADSSPVKAGVETTTPSKQSNNKYAASSYLSLTPEQWKSHRSYSCQVTHEGSTVEKTVAPTECS
chain: EIVLTQSPATLSASPGERVTLSCSASSSVSYMNWYQQKPGQAPRRWIYDSSKLASGVPARFSGSGSGRDYTLTISSLEPEDFAVYYCQQWSRNPPTFGGGTKVEIKGGSEGKSSGSGSESKSTGGSQVQLVQSGAEVKKPGSSVKVSCKASGYTFTRSTMHWVKQAPGQGLEWIGYINPSSAYTNYNQKFQGRVTLTADKSTSTAYMELSSLRSEDTAVYYCASPQVHYDYAGFPYWGQGTLVTVSSEPKSSDKTHTCPPCPAPEAAGGPSVFLFPPKPKDTLMISRTPEVTCVVVSVSHEDPEVKFNWYVDGVEVHNAKTKPREEQYNSTYRVVSVLTVLHQDWLNGKEYKCKVSNKALPAPIEKTISKAKGQPREPQVYTLPPSREEMTKNQVSLWCLVKGFYPSDIAVEWESNGQPENNYKTTPPVLDSDGSFFLYSKLTVDKSRWQQGNVFSCSVMHEALHNHYTQKSLSLSPGK
notes: IgG1; HC1/LC form the CD79b Fab arm; HC2 is the CD3 scFv-Fc arm; Knobs-in-holes; also called CD79bxCD3 bsAb; CD9B330-N31S x CD3B2030-N106A
As for B1, the EC50 in [1] stood at 97 nM; in assay [2] it was 44 nM; in assay [3], 97 nM; in [4], 44 nM. In addition, the dissociation constant Kd in assay [5] was 0.022 nM; in [6] it was 0.58 nM.

B2: 79C3B651 (bispecific antibody, human IgG1, kappa, L234A L235A)
heavy: QVQLQESGPGLVKPSQTLSLTCTVSGVSISNYYWSWIRQPPGKGLEWIGRISPSGRTNYNPSLKSRVTMSLDASKNQFSLKLSSVTAADTAVYYCARGEYSGTYSYSFDIWGQGTMVTVSSASTKGPSVFPLAPSSKSTSGGTAALGCLVKDYFPEPVTVSWNSGALTSGVHTFPAVLQSSGLYSLSSVVTVPSSSLGTQTYICNVNHKPSNTKVDKKVEPKSCDKTHTCPPCPAPEAAGGPSVFLFPPKPKDTLMISRTPEVTCVVVSVSHEDPEVKFNWYVDGVEVHNAKTKPREEQYNSTYRVVSVLTVLHQDWLNGKEYKCKVSNKALPAPIEKTISKAKGQPREPQVYTLPPSREEMTKNQVSLSCAVKGFYPSDIAVEWESNGQPENNYKTTPPVLDSDGSFFLVSKLTVDKSRWQQGNVFSCSVMHEALHNRFTQKSLSLSPGK
light: DIQMTQSPSSLSASVGDRVTITCRSSQSLFDSDDGNTYLDWFQQKPGQSPKLLIQTLSYRASGVPSRFSGSGSGTDFTLTISSLQPEDFATYYCMQRMEFPLTFGGGTKVEIKRTVAAPSVFIFPPSDEQLKSGTASVVCLLNNFYPREAKVQWKVDNALQSGNSQESVTEQDSKDSTYSLSSTLTLSKADYEKHKVYACEVTHQGLSSPVTKSFNRGEC
chain: B1 chain
notes: IgG1; HC1/LC form the CD79b Fab arm; HC2 is the CD3 scFv-Fc arm; Knobs-in-holes; also called CD79bxCD3 bsAb; CD9B643 x CD3B2030-N106A
In the case of B2, the EC50 turned out to be 15 nM in assay [1], 12 nM in assay [2], 15 nM in assay [3] and 12 nM in assay [4]. Also, the Kd in assay [5] came out at 0.052 nM; in assay [6] it was 0.35 nM.

B3: CD3B1136 (scFv)
scFv, VL-linker-VH (LH): EIVLTQSPATLSLSPGERATLSCSASSSVSYMNWYQQKPGTSPRRLIYDSSKLASGIPARFSGSGSGRDYTLTISSLEPEDFAVYYCQQWSRNPPTFGGGTKVEIKGGSEGKSSGSGSESKSTGGSEVQLVQSGAEVKKPGESLRISCKASGYTFTRSTMHWVRQMPGKGLEWMGYINPSSAYTNYNPSFQGHVTLSADKSISTAYLQWSSLKASDTAMYYCARPQVHYDYNGFPYWGQGTLVTVSS
Consider B3, for which, in assay [7], the binding result is given as “no binding (tested: 10 ug/ml (antigen))”.

B4: PSMB1069 (bispecific antibody, human IgG1, kappa, L234A L235A)
heavy: not shown
light: not shown
chain: QVQLVESGGGEVQPGRSLRLSCAASGFSFSGYGMHWVRQAPGKGLEWVAVMSYDGSNRFYVDSVRGRFSISRDNSKNTLYLQMNSLRPEDTAVYYCARDTVWGSHPDAFDIWGQGTVVTVSSGGSEGKSSGSGSESKSTGGSQSVLTQPPSVSVAPGQTARITCGGNNSGSKSVHWYQQKPGQAPVLVVYDDSDRPSGIPERFSGSNSGNTATLTISRVEAGDEADYYCQVWDSSSDHGVFGGGTKLTVLEPKSSDKTHTCPPCPAPEAAGGPSVFLFPPKPKDTLMISRTPEVTCVVVSVSHEDPEVKFNWYVDGVEVHNAKTKPREEQYNSTYRVVSVLTVLHQDWLNGKEYKCKVSNKALPAPIEKTISKAKGQPREPQVYVLPPSREEMTKNQVSLLCLVKGFYPSDIAVEWESNGQPENNYLTWPPVLDSDGSFFLYSKLTVDKSRWQQGNVFSCSVMHEALHNHYTQKSLSLSPG
notes: HC1/LC1 null arm; HC2 is the anti-PSMA scFv-Fc
With B4, the “fold binding signal (Y-max) over the average” value in [8] amounted to 2 fold.

B5: CD3B1127 (scFv)
scFv: QVQLQQSGAELARPGASVKMSCKASGYTFTRSTMHWVKQRPGQGLEWIGYINPSSAYTNYNQKFKDKATLTADKSSSTAYMQLSSLTSEDSAVYYCASPQVHYDYNGFPYWGQGTLVTVSAGGSEGKSSGSGSESKSTGGSQVVLTQSPAIMSAFPGEKVTMTCSASSSVSYMNWYQQKSGTSPKRWIYDSSKLASGVPARFSGSGSGTSYSLTISSMETEDAATYYCQQWSRNPPTFGGGTKLQIT
notes: also called Murine HL; murine Cris-7 scFv (HL)
With B5, in [9], the “% Retained 55° C.” value worked out at 19%, the “% Retained 60° C.” value was found to be 0% and the “% Retained 65° C.” value was 1%. Further, the concentration giving a half-maximal response (EC50) in [10] is ~0.397 nM. In addition, the “EC50 (read off the curve)” value in [11] is ~0.4 nM.
